Data from the RNAGym collection of RNA variant scans (doi:10.7554/elife.80360).

B1: HDV Ribozyme (parent)
chain: GGCCGGCAUGGUCCCAGCCUCCUCGCUGGCGCCGGCUGGGCAACAUUCCGAGGGGACCGUCCCCUCGGUAAUGGCGAAUGGGACCCA

Variants of: B1
Test: self-cleavage, relative activity (ratio to wild type); higher = more cleavage; co-transcriptional

Variant | self-cleavage
U27A U65G | 1.12
U27A U65C | 0.957
G28A A42U | 0.0723
G28A A42C | 0.128
G28A U69A | 0.166
G28A U69C | 0.0361
G28A G68A | 0.124
G28A G68C | 0.0692
U27C C36G | 0.185
U27A C63G | 0.764
U27C G53A | 0.696
U27C G53C | 0.898
C26G G67C | 0.8
C26U C61U | 0.941
C26U C61A | 1.06
G28A C48U | 0.0997
C26U G40U | 1.03
U27C G28C | 0.123
G28U A78G | 0.158
U27A C75G | 0.095
U27C G76C | 1.21
G28A U47C | 0.0739
U27G G53U | 0.923
G28U C63A | 0.0978

Variant | self-cleavage
G28U C63G | 0.262
U27C A42C | 0.431
C26G G50A | 0.923
G28U A83C | 0.0811
U27G U79A | 0.462
U27G U79G | 0.427
G28C C58U | 0.0369
U27C A87U | 0.6
U27A C57A | 0.855
U27A G52U | 0.846
U27A U72C | 0.277
C26U U27A | 0.886
U27C G74U | 0.332
U27C G74C | 0.383
G28A A70U | 0.203
G28C C49A | 0.166
G28C C49G | 0.119
C26G U65C | 1.16
C26U G31C | 0.542
G28U C61U | 0.193
G28A C61A | 0.0791
G28A C61G | 0.133
U27G G74A | 0.229
G28C C36A | 0.0462

Variant | self-cleavage
U27G A83C | 0.831
U27A G59C | 0.939
U27A G59U | 0.95
G28A A71G | 0.0831
U27C C63U | 0.73
G28C C57U | 0.0277
G28A C75U | 0.0563
G28A C75G | 0
U27C C57A | 0.692
U27G G39C | 0.0723
C26G U37G | 0.111
C26G U37C | 1.01
C26G G76U | 0.916
C26G U72G | 0.755
C26G U72A | 0.615
G28C G59C | 0.212
G28A G73A | 0.112
G28A A87U | 0.0932
G28A A43G | 0.0739
G28A A43U | 0.0241
G28C U60G | 0
G28C U60A | 0.104
G28A C84U | 0.0744
C26U A77C | 0.883

Variant | self-cleavage
U27C A43G | 0.383
U27C A43U | 0.237
G28A G81A | 0.101
C26U C41A | 1.15
G28A C63U | 0.107
G28A C66A | 0.0811
U27C C44U | 0.19
U27A A51C | 0.86
G28A G34A | 0.175
G28A G34C | 0.0536
G28A U65C | 0.0415
C26G G74A | 0.441
C26G G74C | 0.0573
G28C C30G | 0.101
G28C C30A | 0
G28A A45G | 0.0415
U27G C84A | 0.831
U27G C84U | 0.612
U27G C84G | 0.378
G28C A51C | 0
G28C A51G | 0.0723
C26U U46A | 0.731
C26U U46G | 0.787
C26U A83G | 0.776

Variant | self-cleavage
C26U A83U | 0.79
U27C C75A | 0.155
G28C C63A | 0.17
G28C C63G | 0.101
U27C A77U | 0.262
U27G A87C | 0.869
G28U A56C | 0
G28C A77C | 0.229
G28C G76A | 0.106
U27C C84G | 0.554
G28U A87G | 0.0817
G28U A87U | 0.116
U27G G31A | 0.539
U27A G68C | 0.688
G28A A77G | 0.111
G28U A71C | 0
G28C C61G | 0.158
G28C C61A | 0.0755
G28A G74A | 0.131
C26G G81U | 0.567
U27C U72C | 0.166
C26U C49U | 0.89
C26U C49A | 1.11
C26U C49G | 0.973

Variant | self-cleavage
G28A C86G | 0.0678
U27C G82U | 0.208
G28A G54C | 0.237
U27C A56C | 0.612
U27C A56G | 0.575
U27C A56U | 0.674
C26G U60G | 0.525
U27A G55A | 1.08
G28U A43U | 0.0615
G28U C64G | 0.102
C26U G34U | 0.767
G28C A78G | 0.26
C26U A70U | 1.01
C26U A45U | 0.77
G28U C32A | 0.0496
G28A U79C | 0.0542
U27C G73U | 0.0449
U27C G73A | 0.231
U27G G67U | 0.764
G28C U79G | 0.246
C26U C62U | 1.1
C26U C62A | 1.08
C26U C62G | 0.618
U27A C44A | 0.369

Variant | self-cleavage
U27A C44G | 0.289
U27G G29A | 0.283
U27G G80A | 0.533
U27C U65C | 0.798
G28U A45C | 0.148
G28C A42C | 0.0437
G28C G39U | 0.125
C26U U69G | 0.96
U27G C36G | 0.0665
C26G G80C | 0.212
U27C C85G | 0.751
U27G C75A | 0.0755
C26U A43C | 0.831
U27G C86G | 0.745
U27A A70C | 0.782
U27A G82U | 0.906
U27A A56G | 1.08
U27A A78C | 0.0573
U27A A78G | 0.249
G28C A71U | 0.0426
G28A G52C | 0.0773
U27C G29A | 0.125
U27C G29C | 0.107
U27A C61G | 0.504

Variant | self-cleavage
U27A C61U | 0.997
U27C U60A | 1.09
C26G G55C | 1.04
G28C G55C | 0.0692
G28U C33G | 0.212
G28C C48A | 0.166
C26U A42C | 0.308
C26U G73A | 0.747
C26U U47C | 1.02
G28A G82A | 0.0604
G28U C49A | 0.0297
G28U C49U | 0.0639
G28C G50A | 0.151
U27A A87G | 0.847
U27A A87U | 0.602
U27A G67A | 1.32
U27A G67C | 0.59
C26G G34C | 0
C26U G38U | 0.616
G28C G38U | 0.162
G28C G38C | 0.0426
U27C G52A | 0.884
C26U C30G | 0.0941
G28U A77U | 0.0707

Variant | self-cleavage
C26G G38A | 0.0978
U27C C66U | 0.534
U27G U69G | 0.798
U27G U69C | 0.969
U27A G81C | 0.356
U27G G55C | 0.779
U27G G34U | 0.538
U27G C61U | 0.831
U27C G34U | 0.185
U27C G34C | 0.106
C26U G82C | 0.431
C26U G50U | 1.12
C26U G50C | 1
C26G G53U | 0.812
G28A C30G | 0.117
U27A G28U | 0.158
U27A G29A | 0.135
U27A U46A | 0.831
G28C G29A | 0.0692
G28A G55U | 0.056
U27A C30G | 0.166
G28C C41U | 0.0437
G28C C41G | 0
U27C A45G | 0.511

Variant | self-cleavage
G28C U65C | 0.101
G28A A56U | 0.111
G28A A56C | 0
U27G A56C | 0.712
U27G A77U | 0.346
U27A C85G | 0.793
U27C C58G | 0.7
U27A C66U | 0.789
U27G G38C | 0.0692
U27G G38U | 0.133
G28C G31U | 0.244
G28A U37A | 0.0773
G28A G35C | 0.153
G28A G35A | 0.0608
G28U | 0.108
G28C | 0.0814
G28A | 0.0977
G28A A51U | 0.138
U27A U47A | 0.7
U27A U47C | 0.391
U27G G82C | 0.237
U27G G82U | 0.095
G28A G31A | 0.101
U27C U69G | 0.712

Variant | self-cleavage
G28A G67C | 0.0519
U27A G54A | 0.961
U27C G54A | 0.598
U27C G54U | 0.845
C26G G31U | 0.48
C26G G31C | 0.284
U27G A51G | 1.03
U27G A51C | 0.906
U27G C64A | 0.705
C26U C85U | 0.935
C26U C85G | 1.22
C26U G68A | 1.02
C26U G68C | 1.03
C26U G68U | 1.13
U27A U60A | 0.918
C26U C66G | 0.861
G28A G53A | 0.02
G28A G53C | 0.0831
G28C G73A | 0
G28C G81U | 0.0639
U27A C49G | 0.617
G28U A51G | 0.117
G28U A51C | 0.222
U27G G54C | 0.914

Variant | self-cleavage
G28C A43C | 0.0573
G28C A43G | 0.0573
C26U G74U | 0.777
G28A U72G | 0.107
C26U G80U | 0.433
U27G A78U | 0.0831
U27C G59U | 0.76
U27A G38C | 0.0665
U27G U72C | 0.32
G28C G40U | 0.032
G28C G40A | 0.148
U27A G74A | 0.0437
U27A G74U | 0.427
U27A C62A | 0.872
U27A C62G | 0.929
G28A G38C | 0.0978
U27A C33A | 0.256
U27A C33U | 1.01
G28A A83U | 0.0308
G28A A83C | 0.0875
G28A A83G | 0.0946
C26U C63G | 0.883
U27G C44G | 0.598
U27G G81A | 0.597

Variant | self-cleavage
U27C G35U | 0.302
U27A G53C | 0.831
U27A G76A | 0.997
C26U U60A | 1.05
C26U U60G | 0.831
C26G G54A | 0.655
U27A G73A | 0.391
C26G U46G | 0.554
C26U A56G | 1.08
U27G C41U | 0.831
G28A G39C | 0.106
G28A G39A | 0.187
U27A C86A | 0.733
U27A G80A | 0.499
U27G A70C | 0.554
G28U C48G | 0.161
U27C G80U | 0.21
U27C C62A | 0.54
G28C G80C | 0.166
G28C G80U | 0.123
U27A G34A | 0.256
G28A C36U | 0.0811
G28A C36A | 0.203
U27G A71U | 0.598

Variant | self-cleavage
U27G A71G | 0.875
U27G C48U | 0.942
U27G C48A | 0.72
C26U G52A | 1.14
C26U G52U | 0.956
C26U A78C | 0.35
U27C C61G | 0.795
U27A C64G | 1.05
U27A C64A | 0.703
C26G G39A | 0.18
U27A C41U | 1.07
C26G G82U | 0.604
G28C C44A | 0.0475
G28C C44U | 0
C26U G81U | 0.439
C26U G81A | 0.888
U27C C48A | 1.02
U27C C48U | 0.604
U27C C64A | 0.705
C26U U79A | 1.04
C26U U79G | 1.03
U27G C49A | 0.886
